From paper PMC11111636 (EJNMMI Radiopharmacy and Chemistry, 2024)

Experiments:
[1] = Method: Distribution coefficient was determined by a shake-flask method. […] The vial was vortexed vigorously and then centrifuged at 10,000 rpm for 10 min for phase separation. Samples (100 μL) of the n-octanol and aqueous phases were taken and measured in the gamma counter. LogD7.4 value was calculated by using the following equation: LogD7.4 = log [(counts in n-octanol phase)/(counts in aqueous phase)]. Measurements were performed in triplicates.
[2] = In vitro stability in PBS (radio-HPLC); assay type: physicochemical; conditions: 37 °C; for PBS (%) intact labeled ligand: n = 1
[3] = in vitro; conditions: mouse, mouse serum, Mouse serum (%) intact labeled ligand, 37 °C, n = 1
Method: Stability of the radiolabeled peptide was monitored at 1, 4 and 24 h post incubation. The samples in PBS were directly analyzed by radio-HPLC without any pretreatment. However, samples in mouse serum were mixed with an equal volume of acetonitrile to precipitate the proteins. The solution was centrifuged for 10 min at 13,000 rpm and the supernatant was analyzed by radio-HPLC.

[4] = tested on: U2OS.SSTR2 cells; experiment: Uptake/internalization studies in U2OS.SSTR2 cells; assay type: cell-based, human
Method: Cells were seeded in 6-well plates 24 h before the experiment (7 × 10^5 cells/well). […] The membrane-bound fraction was collected by incubating cells with an acid buffer (50 mM glycine, 100 mM NaCl, pH 2.8) for 10 min at rt. The internalized fraction was determined by lysing the cells with 1 M NaOH for 5 min at rt. Both fractions were measured in a gamma counter, and data were analyzed in GraphPad Prism v9 and expressed as percentage of added dose.

[5] = Ex vivo biodistribution in H69-tumor bearing mice; conditions: mouse, in vivo; for tissue uptake at 4 h / tissue uptake at 1 h / tissue uptake at 24 h: n = 4; for tissue uptake at 1 h: 1 h p.i.; for tissue uptake at 24 h: 24 h p.i.
Method: (§1) Six-week‐old female Balb/c nu/nu‐specific mice (Janvier Labs, Le Genest‐Saint‐Isle, France) were housed in individually ventilated cages (4 mice/cage). Upon arrival, mice were acclimated for one week, with access to food and water ad libitum. Mice were subcutaneously inoculated on the right shoulder with NCI-H69 cells (5 × 10^6 cells) suspended in 100 μL of 1/3 Matrigel (Corning Inc.; Corning, NY, USA) and 2/3 Hank’s balanced salt solution (Gibco; Paisley, UK). NCI-H69 xenografts were allowed to grow for 2 weeks.
(§2) At 3 selected time points (1, 4 and 24 h; n = 4) p.i., blood was collected via retro-orbital puncture under isoflurane/O2 anesthesia, after which the mice were sacrificed via cervical dislocation. The tumor and organs of interest (heart, lungs, liver, spleen, stomach, large intestine, small intestine, pancreas, kidneys, muscle, skin, bone) were excised, washed in PBS and blotted dry. […] To determine the total injected radioactivity per animal, a calibration curve with indium-111 was established using the gamma counter. The percentage of injected dose per gram (% ID/g) was determined for each tissue and corrected for both the injected activity and % ID present at the injection site (the tail). Then, the tumor and the organs were placed in a petri dish and ex vivo optical imaging was performed with the IVIS Spectrum system (Perkin Elmer, Waltham, MA, USA) using the following settings for all measurements: FOV 19.5 cm, medium binning, f2, 60 s exposure with an excitation/emission filter of 646 nm/662 nm. Living Image version 4.5.2 software (Perkin Elmer) was used to perform data analysis by drawing regions of interest around the organ/tissue to quantify the radiant efficiency {(photons/second/cm^2/steradian)/(μW/cm^2)}.

[6] = tested on: H69-xenograft Balb/c nu/nu mice; experiment: Ex vivo biodistribution in H69-tumor bearing mice; conditions: for Tumor uptake lower than the tumor uptake of [111In]In-DOTA-TATE: P < 0.05
Method: as §1, §2

[7] = iv, 2 nmol, Uptake in Intestines

C[C@@H](O)[C@H](NC(=O)[C@@H]1CSSC[C@H](NC(=O)[C@@H](Cc2ccccc2)NC(=O)CCC(C(=O)O)N2CCN(CC(=O)O)CCN(Cc3cccc(COCCCn4nnc5c4-c4ccccc4N(C(=O)CCCCCNC(=O)CCCCC[N+]4=C(C=CC=CC=C6N(C)c7ccc(S(=O)(=O)[O-])cc7C6(C)C)C(C)(C)c6cc(S(=O)(=O)O)ccc64)Cc4ccccc4-5)n3)CCN(CC(=O)O)CC2)C(=O)N[C@@H](Cc2ccc(O)cc2)C(=O)N[C@H](Cc2c[nH]c3ccccc23)C(=O)N[C@@H](CCCCN)C(=O)N[C@@H]([C@@H](C)O)C(=O)N1)C(=O)O (some centres unmarked) [[^111In]In-eTFC-01, metal not drawn]
LogD7.4 ([1]; n-octanol/PBS pH 7.4, n = 3): negative | logD ([1]; pH 7.4): -0.7 ± 0.06 | Degradation in PBS buffer ([2]; up to 24 h): No degradation | PBS (%) intact labeled ligand ([2]; 1 h): 99.0% | PBS (%) intact labeled ligand ([2]; 4 h): 99.0% | PBS (%) intact labeled ligand ([2]; 24 h): 99.0% | remaining at 1 h ([3]; 1 h): 97.9% | remaining at 4 h ([3]; 4 h): 86% | remaining at 24 h ([3]; 24 h): 71% | Internalized fraction of radioactivity ([4]; 10^-9 M, 90 min, 37 °C): 97% | Total uptake ([4]; 10^-9 M, 90 min, 37 °C, % of added dose per 1,000,000 cells, n = 3): 20.87 ± 1.92 % AD | Cell uptake with excess of unlabeled DOTA-TATE ([4]; 50-fold excess DOTA-TATE): almost completely blocked | Drop of the cell uptake in presence of an excess of DOTA-TATE ([4]; 50-fold excess DOTA-TATE): 95% | tissue uptake ([5]; 2 nmol, Tumor uptake, from 1 h to 24 h post injection): 2 to 3 %ID/g | tissue uptake at 4 h ([5]; Uptake in Blood, 4 h block (co-injected 50 nmol DOTA-TATE)): 4.11 ± 0.16 %ID/g | tissue uptake at 4 h ([5]; Uptake in Bones, 4 h block (co-injected 50 nmol DOTA-TATE)): 1.53 ± 0.27 %ID/g | tissue uptake at 4 h ([5]; Uptake in Heart, 4 h block (co-injected 50 nmol DOTA-TATE)): 2.14 ± 0.46 %ID/g | tissue uptake at 4 h ([5]; Uptake in Intestines, 4 h block (co-injected 50 nmol DOTA-TATE)): 1.48 ± 0.13 %ID/g | tissue uptake at 4 h ([5]; Uptake in Kidneys, 4 h block (co-injected 50 nmol DOTA-TATE)): 46.6 ± 6.34 %ID/g | tissue uptake at 4 h ([5]; Uptake in Liver, 4 h block (co-injected 50 nmol DOTA-TATE)): 10.6 ± 1.55 %ID/g | tissue uptake at 4 h ([5]; Uptake in Lungs, 4 h block (co-injected 50 nmol DOTA-TATE)): 6.05 ± 0.59 %ID/g | tissue uptake at 4 h ([5]; Uptake in Muscle, 4 h block (co-injected 50 nmol DOTA-TATE)): 0.67 ± 0.08 %ID/g | tissue uptake at 4 h ([5]; Uptake in Pancreas, 4 h block (co-injected 50 nmol DOTA-TATE)): 0.95 ± 0.23 %ID/g | tissue uptake at 4 h ([5]; Uptake in Skin, 4 h block (co-injected 50 nmol DOTA-TATE)): 3.61 ± 0.4 %ID/g | tissue uptake at 4 h ([5]; Uptake in Spleen, 4 h block (co-injected 50 nmol DOTA-TATE)): 3.97 ± 0.9 %ID/g | tissue uptake at 4 h ([5]; Uptake in Stomach, 4 h block (co-injected 50 nmol DOTA-TATE)): 0.43 ± 0.12 %ID/g | tissue uptake at 4 h ([5]; Uptake in Tumor, 4 h block (co-injected 50 nmol DOTA-TATE)): 1.81 ± 0.14 %ID/g | tissue uptake at 1 h ([5]; iv, 2 nmol, Uptake in Blood): 6.96 ± 0.68 %ID/g | tissue uptake at 4 h ([5]; iv, 2 nmol, Uptake in Blood, 4 h p.i.): 4.7 ± 0.24 %ID/g | tissue uptake at 24 h ([5]; iv, 2 nmol, Uptake in Blood): 0.64 ± 0.11 %ID/g | tissue uptake at 1 h ([5]; iv, 2 nmol, Uptake in Bones): 2.29 ± 0.17 %ID/g | tissue uptake at 4 h ([5]; iv, 2 nmol, Uptake in Bones, 4 h p.i.): 1.7 ± 0.23 %ID/g | tissue uptake at 24 h ([5]; iv, 2 nmol, Uptake in Bones): 0.98 ± 0.21 %ID/g | tissue uptake at 1 h ([5]; iv, 2 nmol, Uptake in Heart): 4.14 ± 0.76 %ID/g | tissue uptake at 4 h ([5]; iv, 2 nmol, Uptake in Heart, 4 h p.i.): 2.5 ± 0.17 %ID/g | tissue uptake at 24 h ([5]; iv, 2 nmol, Uptake in Heart): 0.74 ± 0.12 %ID/g | tissue uptake at 1 h [5, 7]: 1.85 ± 0.24 %ID/g | tissue uptake at 4 h ([5]; iv, 2 nmol, Uptake in Intestines, 4 h p.i.): 1.85 ± 0.24 %ID/g | tissue uptake at 24 h [5, 7]: 0.44 ± 0.09 %ID/g | tissue uptake at 1 h ([5]; iv, 2 nmol, Uptake in Kidneys): 33.2 ± 3.27 %ID/g | tissue uptake at 4 h ([5]; iv, 2 nmol, Uptake in Kidneys, 4 h p.i.): 36.6 ± 2.02 %ID/g | tissue uptake at 24 h ([5]; iv, 2 nmol, Uptake in Kidneys): 30.6 ± 5.9 %ID/g | tissue uptake at 1 h ([5]; iv, 2 nmol, Uptake in Liver): 8.88 ± 0.9 %ID/g | tissue uptake at 24 h ([5]; iv, 2 nmol, Uptake in Liver): 6.03 ± 1.14 %ID/g | tissue uptake at 1 h ([5]; iv, 2 nmol, Uptake in Lungs): 8.07 ± 1.18 %ID/g | tissue uptake at 4 h ([5]; iv, 2 nmol, Uptake in Lungs, 4 h p.i.): 7.71 ± 0.87 %ID/g | tissue uptake at 24 h ([5]; iv, 2 nmol, Uptake in Lungs): 1.75 ± 0.19 %ID/g | tissue uptake at 1 h ([5]; iv, 2 nmol, Uptake in Muscle): 1.07 ± 0.1 %ID/g | tissue uptake at 4 h ([5]; iv, 2 nmol, Uptake in Muscle, 4 h p.i.): 0.73 ± 0.08 %ID/g | tissue uptake at 24 h ([5]; iv, 2 nmol, Uptake in Muscle): 0.26 ± 0.05 %ID/g | tissue uptake at 1 h ([5]; iv, 2 nmol, Uptake in Pancreas): 1.99 ± 0.26 %ID/g | tissue uptake at 4 h ([5]; iv, 2 nmol, Uptake in Pancreas, 4 h p.i.): 1.28 ± 0.17 %ID/g | tissue uptake at 24 h ([5]; iv, 2 nmol, Uptake in Pancreas): 0.64 ± 0.18 %ID/g | tissue uptake at 1 h ([5]; iv, 2 nmol, Uptake in Skin): 5.73 ± 1.28 %ID/g | tissue uptake at 4 h ([5]; iv, 2 nmol, Uptake in Skin, 4 h p.i.): 3.78 ± 0.35 %ID/g | tissue uptake at 24 h ([5]; iv, 2 nmol, Uptake in Skin): 1.54 ± 0.35 %ID/g | tissue uptake at 1 h ([5]; iv, 2 nmol, Uptake in Spleen): 5.09 ± 0.72 %ID/g | tissue uptake at 4 h ([5]; iv, 2 nmol, Uptake in Spleen, 4 h p.i.): 3.58 ± 1.02 %ID/g | tissue uptake at 24 h ([5]; iv, 2 nmol, Uptake in Spleen): 2.03 ± 0.43 %ID/g | tissue uptake at 1 h ([5]; iv, 2 nmol, Uptake in Stomach): 2.66 ± 0.49 %ID/g | tissue uptake at 4 h ([5]; iv, 2 nmol, Uptake in Stomach, 4 h p.i.): 1.41 ± 0.19 %ID/g | tissue uptake at 24 h ([5]; iv, 2 nmol, Uptake in Stomach): 0.77 ± 0.22 %ID/g | tissue uptake at 1 h ([5]; iv, 2 nmol, Uptake in Tumor): 2.56 ± 0.38 %ID/g | tissue uptake at 4 h ([5]; iv, 2 nmol, Uptake in Tumor, 4 h p.i.): 3.04 ± 0.49 %ID/g | tissue uptake at 24 h ([5]; iv, 2 nmol, Uptake in Tumor): 2.21 ± 0.31 %ID/g | Tumor uptake lower than the tumor uptake of [111In]In-DOTA-TATE ([6]; 1 h p.i.): 54% | Tumor uptake reduction by co-injection of an excess of DOTA-TATE ([6]; 4 h p.i., compared to the unblocked group): 40% | Tumor uptake lower than the tumor uptake of [111In]In-DOTA-TATE ([6]; 24 h p.i.): 31%
